Reference: patent US20040202655A1 (published 2004)
Several values for one entry are separate records, joined by “and”; a condition that tells them apart may be missing. Equal entries are not always repeated.

Legend:
[1] = target: T1, human IGF-I receptor on cells (NIH-3T3 fibroblasts expressing the human IGF-IR; DU145 cells) (human, UniProt P08069 31-1367); assay: cell-based or functional assay
[2] = target: T1, human IGF-I receptor on cells (NIH-3T3 …); assay: saturation binding of 125I-labelled IgG to NIH-3T3 cells expressing human IGF-1R, on ice; unit inferred
Method: The mixtures were in incubated on ice for 70 min. After the incubation the tubes were centrifuged at 1000 rpm for 1 min and the supernatant fractions were removed by aspiration. The cell pellets were washed with 50 μl of ice-cold Hanks' Balanced Salt Solution containing 0.2% BSA and 20 mM Hepes and centrifuged at 1000 rpm for […] and the supernatant fractions were removed by aspiration. The resulting cell pellets were counted in Perkin Elmer Cobra Quantum gamma counter. […] The specific binding was obtained by subtracting the non-specific binding counts from the total binding counts in corresponding pairs.

[3] = target: T1, human IGF-I receptor on cells (NIH-3T3 …); assay: competition with 125I-IGF-II, NIH-3T3 cells expressing human IGF-1R, 37 C
[4] = target: T1, human IGF-I receptor on cells (NIH-3T3 …); assay: competition with 125I-IGF-II, NIH-3T3 cells expressing human IGF-1R, 4 C
Method: (§1) NIH-3T3 fibroblasts expressing the human IGF-IR, or NIH-3T3 non-transfected fibroblasts were plated at 6×10⁴ cells per well in 0.5 ml of DMEM (Gibco, #11960-044) supplemented with 10% heat-inactivated fetal bovine serum (Gibco, #16140-071), 2 mM L-glutamine (Gibco, #25030-081) and 50 U/ml penicillin-streptomycin (Gibco, #15070-063). The NIH-3T3 cells were used as a control for non-specific cell binding. The plates were incubated at 37° C./5% CO₂ for 24 hours to allow cells to attach and become 80-90% confluent. The overlying media was then replaced with 0.5 ml per well of starvation media consisting of DMEM, 20 mM Hepes (Gibco, #15630-080), 2 mM L-glutamine and 0.1% bovine serum albumin (Equitech-Bio, protease-free, Kerrville, Tex.) and the plates were incubated at 37° C., 5% CO₂ overnight. All subsequent binding steps were conducted at 4° C. Test antibodies were diluted in ice-cold starvation media to the desired final concentration and 100 μl added per well. All samples were performed in duplicate. […] Cell monolayers were washed three times with ice-cold PBS (Gibco, #14040-117) and cells and associated radioactivity were released by adding 0.5ml 2% sodium dodecyl sulfate/0.2N NaOH to each well and heating the plates at 60° C. for 15 minutes. Lysate associated radioactivity was quantitated by gamma scintillation spectrometry. Alternatively, the same described experiment was performed with preincubation with the test antibodies at 37° C. for 10 minutes, followed by 10 minutes incubation at 37° C. after addition of 400 pM of the iodinated radioligand.

[5] = target: T1, human IGF-I receptor on cells (NIH-3T3 …); assay: cell-based or functional assay; remark: listed apart in the source
[6] = target: T1, human IGF-I receptor on cells (NIH-3T3 …); assay: competition with 125I-IGF-I, NIH-3T3 cells expressing human IGF-1R, 4 C
Method: as §1

[7] = target: T1, human IGF-I receptor on cells (NIH-3T3 …); assay: competition with 125I-IGF-I, NIH-3T3 cells expressing human IGF-1R, 37 C
Method: as §1, with “Alternatively, the same described experiment was performed with preincubation with the test antibodies at 37° C. for 10 minutes, followed by 10 minutes incubation at 37° C. after addition of 400 pM of the iodinated radioligand.” left out

B1: PINT-11A4 IgG (antibody, V domains shown)
VH: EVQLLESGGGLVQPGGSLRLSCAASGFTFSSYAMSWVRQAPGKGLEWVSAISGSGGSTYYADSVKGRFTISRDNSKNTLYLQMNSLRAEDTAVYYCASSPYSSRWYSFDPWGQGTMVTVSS
VL: LSYELTQPPSVSVSPGQTATITCSGDDLGNKYVSWYQQKPGQSPVLVIYQDTKRPSGIPERFSGSNSGNIATLTISGTQAVDEADYYCQVWDTGTVVFGGGTKLTVLG
- Antagonist Assay IC50 (nM), IGF-I-induced IGF-1R tyrosine phosphorylation (ELISA) [1]: 2.4 nM and 3.3 nM
- Kd [2]: 2.24 nM
- IC50 [3]: 3 nM and 2.6 nM
- IC50 [4]: > 75 nM
- IC50 (nM), IGF-1 dependent proliferation of NIH-3T3/hIGF-1R cells (BrdU ELISA) [5]: 3.4 nM and 2.6 nM
- IC50 [6]: > 100 nM
- IC50 [7]: 1.9 nM
